Where a chain is given by its changes, count along the chain named.
B1: SEQ ID NO 6 (VHH)
VHH: QVQLQESGGGSVQAGETLRLSCTASGDTFDASGVGWFRQVSGNECDLVSSINRDGTTYYAPSVAGRFTMSQNNAKNTVYLQMNSLKPDDTAVYYCATDPAVGIVVRSTCRGPFGYWGQGTQVTVSS
notes: pMECS-expressed; also called anti-PD-L1 nanobody No. 6; VHH numbered 6
B2: SEQ ID NO 11 (VHH)
VHH: B1 VHH with A31D, M69I, D98V, S107I
notes: pMECS-expressed; also called anti-PD-L1 nanobody No. 11; VHH numbered 11
B3: SEQ ID NO 8 (VHH)
VHH: QVQLQESGGDSVQAGGSLRLACKVPGFTSNTCAMAWFRQAPGKEREFVSSISTGGTTGYAESAKGRFTLSKDEAKDTVYLQMNSLKPEDTAMYFCKSYACRTCIGRYCRTAPDAWGQGTQVTVSS
notes: pMECS-expressed; also called anti-PD-L1 nanobody No. 8; VHH numbered 8
B4: SEQ ID NO 2 (VHH)
VHH: QVQLQESGGGSVQAGGSLRLSCAVSRYSASNNVIKWMGWFRQAPGKEREGVAALYTSGGNTYYADSVKGRFTISRDYSENTVSLQMNNLKPEDTGMYYCATTVGTVLAGPLSARKYNYWGQGTQVTVSS
notes: pMECS-expressed; also called anti-PD-L1 nanobody No. 2; VHH numbered 2
B5: SEQ ID NO 9 (VHH)
VHH: QVQLQESGGGSVQAGGSLRLSCAASGYTYSNDGMGWFRQIPGKEREGVAAISPTGRRTEYADSVQGRFTISRDNAKNMLSLQMNSLKPEDTGMYYCAREGSGSFSLQNSAVRSWGQGTQVTVSS
notes: pMECS-expressed; also called anti-PD-L1 nanobody No. 9; VHH numbered 9
B6: SEQ ID NO 1 (VHH)
VHH: QVQLQESGGGSVQTGGSLRLSCTASTSIYSNNYMAWFSQSPGKGREGVAAVYMDDGRPYYADSVKGRFTISLDSAKNTMYLQMNSLKPEDTAMYYCAAAPGPLSRNYWYTSANYDYWGQGTQVTVSS
notes: pMECS-expressed; also called anti-PD-L1 nanobody No. 1; VHH numbered 1
B7: SEQ ID NO 5 (VHH)
VHH: B6 VHH with T23A, S40A, M53I, M79V, S85G
notes: pMECS-expressed; also called anti-PD-L1 nanobody No. 5; VHH numbered 5
B8: SEQ ID NO 12 (VHH)
VHH: QVQLQESGGGSVQAGGSLRLSCAASGYTRSSHCMVWFRQAPGKEREGVALIYTGSGSTYYADSVKGRFTISQDNAKKTLYLQMNSLKPEDTAMYYCAAGTSSSSCPGLLGPPRYYNWGQGTQVTVSS
notes: pMECS-expressed; also called anti-PD-L1 nanobody No. 12; VHH numbered 12
B9: SEQ ID NO 147 (VHH)
VHH: QVQLQESGGGSVQAGGSLRLSCAASGYTSRPNFMVWFRQAPGKEREAVAGIYTVTGGTLYSDPVKGRFTISQDKAKNTVYLQMNSLNPEDTAMYYCAVKWYGGSWSDAATFRTWGRGTQVTVSS
notes: pMECS-expressed; also called VHH numbered 147
B10: SEQ ID NO 148 (VHH)
VHH: QVQLQESGGGSVQAGGSLRLSCAASGYSYNIDYMAWFRQAPGKEREGVAAIYTGSRRTYYSDSVKGRFAISQDNADNTVYLQMNALKPEDTAMYFCAALVSRPGRSWDKNEYRYWGQGTQVTVSS
notes: pMECS-expressed; also called VHH numbered 148
B11: SEQ ID NO 141 (VHH)
VHH: QVQLQESGGGSVQAGGSLRLSCTAPGFTSNTCAMAWFRQAPGKEREFVSSMSTVGSTRFADSVKGRFTISKDEAKDTVYLQMNSLKPEDTAMYFCKTYACRECTGRYCRTAPDAWGQGTQVTVSS
notes: pMECS-expressed; also called VHH numbered 141
B12: SEQ ID NO 143 (VHH)
VHH: B11 VHH with F37Y, M51I, G55R, S56T, R58A, F59Y, D76A, T97S, E102D, T104I
notes: pMECS-expressed; also called VHH numbered 143
B13: SEQ ID NO 150 (VHH)
VHH: QVQLQESGGGLVQPGGSLRLSCAASGFTFSAYGMSWVRQAPGKGFEWVSTINSGGGTTFYADSVKGRFTISRDNAKNTLYLQLNSLRTEDTAMYYCRRCADIYCSLSGGWTGQGTQVTVSS
notes: pMECS-expressed; also called VHH numbered 150
B14: SEQ ID NO 144 (VHH)
VHH: QVQLQESGGGSVQAGQSLRLSCTASGYTDSRYCMGWFRQAPGKERERVTTIHTGTGITYYADSVKGRFSISQDNAQNTMYLQMNSLEPEDTAMYYCATTDYVYSASASWCNGYGVFNNWGQGTQVTVSS
notes: pMECS-expressed; also called VHH numbered 144
B15: SEQ ID NO 142 (VHH)
VHH: B4 VHH with A14T, T101A
notes: pMECS-expressed; also called VHH numbered 142
B16: SEQ ID NO 139 (VHH)
VHH: QVQLQESGGGSVQAGGSLRLSCVASGYTNCRYDMSWYRQAPGKEREFVSSIDSEGVARHADSVKGRFGISQDNAKSTLYLQMNSLKPEDTAVYYCKTDYITCRFGSWSDSTWGQGTQVTVSS
notes: pMECS-expressed; also called VHH numbered 139
B17: SEQ ID NO 140 (VHH)
VHH: B16 VHH with V92M, T97M, T101R, D109E
notes: pMECS-expressed; also called VHH numbered 140
B18: SEQ ID NO 149 (VHH)
VHH: QVQLQESGGGLVQAGGSLRLSCTASGFTFDDYSMGWFRQAPGKEREGISCIDWSGGRTNYGDSVKGRFTISRDNAKNTLYLQMNSLKPEDTAMYYCAANSAYSSCSLSTTHYKYWGQGTQVTVSS
notes: pMECS-expressed; also called VHH numbered 149

target: T1, human PD-L1 protein (coated antigen) (human, UniProt Q9NZQ7 19-238, limits assumed); test: ELISA, purified nanobody 10 ug/mL, coated PD-L1 against coated PD-L2
T1 construct: Construct not described; also called PD-L1 antigen; antigenic protein PD-L1
T1 sequence (Q9NZQ7 19-238 limits assumed): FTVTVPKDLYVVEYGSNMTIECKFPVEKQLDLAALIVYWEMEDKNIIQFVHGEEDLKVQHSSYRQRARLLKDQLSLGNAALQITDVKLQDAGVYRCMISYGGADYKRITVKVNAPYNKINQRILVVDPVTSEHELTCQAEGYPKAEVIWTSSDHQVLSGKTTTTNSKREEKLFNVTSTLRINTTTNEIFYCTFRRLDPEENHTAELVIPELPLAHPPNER
Protocol: (§1) (1) Coated antigenic proteins PD-L1 and PD-L2: 0.5 μg per well (5 μg/mL, 100 μL), packaged NaHCO₃ (100 mM, pH8.2) was used as a blank control and overnight at 4° C. (2) Wash the cells three times with PBST the next day, add 200 μL of 1% BSA to block at room temperature for 2 hours. (3) Each purified nanobody was diluted to 10 μg/mL, and 100 pt of each of the purified nanobodies was incubated with the coated PD-L1, PD-L2 and the blank control group, and reacted at room temperature for 1 hour. (4) Unbound antibody was washed away with PBST, and 100 μL of mouse anti-HA tag antibody (1:2000 dilution) was added and placed at room temperature for 1 hour. (5) Unbound antibody was washed away with PBST, and anti-mouse alkaline phosphatase conjugate (1:2000 dilution) was added and placed at room temperature for 1 hour. (6) Wash the unbound antibody with PBST, add alkaline phosphatase coloring solution, and read the absorbance at 405 nm on an ELISA apparatus. The specificity of the nanobody was judged based on the absorption value.

| Binder | OD ratio (PD-L1/PD-L2) |
| --- | --- |
| B1 | 29.9 |
| B2 | 25 |
| B3 | 25.3 |
| B4 | 31.8 |
| B5 | 27.2 |
| B6 | 32.2 |
| B7 | 26.4 |
| B8 | 23.9 |

target: T1, human PD-L1 protein (coated antigen); test: PE-ELISA, crude extract on coated PD-L1
How it was run: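 Phage clones were expressed with 1 mmol IPTG at 28° C overnight, and crude periplasmic antibody was applied to PD-L1-coated plates for 1 h at room temperature. Detection used anti-HA, then an alkaline phosphatase conjugate, read at 405 nm. A sample/control OD ratio above 3 marked a positive clone.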

| Binder | OD ratio (experimental group (A405 nm)/control group (A405 nm)) |
| --- | --- |
| B1 | > 20 |
| B2 | > 20 |
| B3 | > 20 |
| B4 | > 20 |
| B5 | > 20 |
| B6 | > 20 |
| B7 | > 20 |
| B8 | > 20 |

target: T1, human PD-L1 protein (coated antigen); test: ELISA, purified nanobody 10 ug/mL on coated PD-L1, anti-HA detection
Protocol: as §1

| Binder | ELISA absorbance (A405 nm) |
| --- | --- |
| B1 | 3.44 |
| B2 | 2.9 |
| B3 | 3.37 |
| B4 | 3.63 |
| B5 | 3.56 |
| B6 | 3.8 |
| B7 | 3.38 |
| B8 | 2.99 |

target: T1, human PD-L1 protein (coated antigen); test: PE-ELISA on coated PD-L1

| Binder | binding result |
| --- | --- |
| B9 | binds |
| B10 | binds |
| B11 | binds |
| B12 | binds |
| B13 | binds |
| B14 | binds |
| B15 | binds |
| B16 | binds |
| B17 | binds |
| B18 | binds |

target: T2, PD-L1 on 293F cells transiently transfected with the PD-L1 full-length gene (UniProt Q9NZQ7 19-290, limits assumed); test: flow cytometry, 293F cells transiently transfected with PD-L1 or PD-L2
T2 construct: whole, on cells; also called PD-L1 transient cells
T2 sequence (Q9NZQ7 19-290 limits assumed): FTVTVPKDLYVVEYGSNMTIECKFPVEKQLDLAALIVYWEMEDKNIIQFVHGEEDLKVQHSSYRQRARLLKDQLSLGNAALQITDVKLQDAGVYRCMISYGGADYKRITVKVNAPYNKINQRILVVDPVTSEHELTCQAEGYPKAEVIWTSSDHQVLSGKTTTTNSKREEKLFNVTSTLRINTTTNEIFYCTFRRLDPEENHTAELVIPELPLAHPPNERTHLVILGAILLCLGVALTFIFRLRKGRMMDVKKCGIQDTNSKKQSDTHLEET
Protocol: In addition, the specificity of the PD-L1 nanobody was detected by flow cytometry. The PD-L1 full-length gene and the PD-L2 full-length gene were transiently transfected in a conventional 293F cell, and a nano-antibody (SEQ ID NO.: 1) of PD-L1 was selected for incubation for flow cytometry.

| Binder | fold difference (PD-L1 transient cells against PD-L2 transient cells) [times] |
| --- | --- |
| B6 | ≥ 550 |

target: T3, PD-L2 (coated antigenic protein) (UniProt Q9BQ51 20-220, limits assumed); test: ELISA, purified nanobody 10 ug/mL on coated PD-L2, anti-HA detection
T3 sequence (looked up): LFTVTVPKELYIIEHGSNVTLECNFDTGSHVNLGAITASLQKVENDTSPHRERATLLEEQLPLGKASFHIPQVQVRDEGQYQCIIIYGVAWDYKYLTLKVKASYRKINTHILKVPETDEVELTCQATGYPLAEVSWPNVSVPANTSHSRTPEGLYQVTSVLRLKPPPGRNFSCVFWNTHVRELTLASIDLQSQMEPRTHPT
Protocol: as §1

| Binder | ELISA absorbance (A405 nm) |
| --- | --- |
| B1 | 0.115 |
| B2 | 0.116 |
| B3 | 0.133 |
| B4 | 0.114 |
| B5 | 0.131 |
| B6 | 0.118 |
| B7 | 0.128 |
| B8 | 0.125 |

Source: patent US20190177416A1 (NANOMAB TECHNOLOGY, published 2019)
